Data taken from patent publication US20250270341A1 (Alector, published 2025).

T1: Full length mouse CD98hc on CHO cells (mouse, UniProt P10852 1-526)
T1 construct: CHO cells stably overexpressing it; also called CHO-mouse CD98hc; CHO-mCD98hc
T1 sequence: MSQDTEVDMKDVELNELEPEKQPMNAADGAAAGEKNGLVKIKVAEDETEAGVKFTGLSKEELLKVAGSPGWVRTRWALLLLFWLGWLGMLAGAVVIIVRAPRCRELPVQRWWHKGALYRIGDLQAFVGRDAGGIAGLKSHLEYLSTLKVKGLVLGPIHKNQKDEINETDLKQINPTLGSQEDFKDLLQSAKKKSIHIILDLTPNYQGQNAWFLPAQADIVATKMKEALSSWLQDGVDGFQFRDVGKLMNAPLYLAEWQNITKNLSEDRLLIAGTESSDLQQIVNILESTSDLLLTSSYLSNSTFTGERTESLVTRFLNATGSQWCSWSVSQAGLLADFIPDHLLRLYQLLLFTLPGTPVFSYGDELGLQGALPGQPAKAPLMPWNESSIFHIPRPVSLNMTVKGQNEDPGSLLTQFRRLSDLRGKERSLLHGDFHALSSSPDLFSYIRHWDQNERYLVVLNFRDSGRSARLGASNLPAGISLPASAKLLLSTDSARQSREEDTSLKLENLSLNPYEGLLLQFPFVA

T2: muCD98hc ECD Avi-His (mouse, UniProt P10852 100-526)
T2 construct: biotinylated on the Avi tag where captured on streptavidin; also called Mouse CD98-AVI-His; Mouse CD98hc-AVI-His
T2 sequence: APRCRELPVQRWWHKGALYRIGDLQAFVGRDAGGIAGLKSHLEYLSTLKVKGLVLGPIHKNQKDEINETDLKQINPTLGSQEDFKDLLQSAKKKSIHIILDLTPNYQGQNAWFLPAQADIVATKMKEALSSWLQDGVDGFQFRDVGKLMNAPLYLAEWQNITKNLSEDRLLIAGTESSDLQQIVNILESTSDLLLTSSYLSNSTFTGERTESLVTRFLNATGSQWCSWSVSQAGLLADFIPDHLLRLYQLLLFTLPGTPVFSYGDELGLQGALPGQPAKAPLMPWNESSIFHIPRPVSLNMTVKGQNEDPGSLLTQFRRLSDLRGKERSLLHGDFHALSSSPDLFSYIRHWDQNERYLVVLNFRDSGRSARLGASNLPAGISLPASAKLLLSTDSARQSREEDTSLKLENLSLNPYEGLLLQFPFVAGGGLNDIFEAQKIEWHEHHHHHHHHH


Assays:
[1] = biological target: T1, Full length mouse CD98hc on CHO cells; assay: FACS, hybridoma supernatant
[2] = biological target: T1, Full length mouse CD98hc on CHO cells; assay: FACS, hybridoma supernatant; remark: listed apart in the source
Excerpt: The IgG positive hybridoma supernatants (898 in total) were initially screened for their ability to differentially bind CHO cells overexpressing human or mouse CD98hc cells compared to CHO parental cells by FACS. Overexpressing cells were harvested, washed, and labeled with various concentrations and combinations of CellTrace cell proliferation dyes CFSE and Violet (ThermoFisher, Cat #C34554 and Cat #34557, respectively) to create uniquely barcoded cell populations. Barcoded cells (5×10⁴ of each cell population) were aliquoted into 96-well U-bottom plates and incubated with 50 μl of hybridoma cell culture supernatant or 1 μg/ml of commercially available purified mouse anti-human CD98hc monoclonal antibody (Sigma Aldrich, Cat #SAB 4700503) and rat anti-mouse CD98hc antibody (Bio-Rad Laboratories, Hercules, CA, Cat #MCA2684) on ice for 30 minutes. […] Following this secondary antibody incubation, the cells were again washed twice with ice-cold FACS buffer and resuspended in a final volume of 50 μl of FACS buffer containing 0.25 μl/well propidium iodide (BD Biosciences, Cat #556463). Binding intensity on cells was analyzed using the FACS Canto system (BD Biosciences), with sorting gates drawn to exclude dead (i.e., propidium iodide-positive) cells. For each barcoded cell population, the ratio of APC Mean Fluorescence Intensity (MFI) divided by secondary antibody MFI was calculated for each anti-CD98hc hybridoma supernatant tested and reported in Table 5.

[3] = biological target: T3, Human TfR-AVI-His (control) (human, UniProt P02786 89-760); assay: ELISA, hybridoma supernatant
T3 construct: control protein; also called Avi-His-tagged human TfR; human transferrin receptor
T3 sequence (P02786 89-760 limits assumed): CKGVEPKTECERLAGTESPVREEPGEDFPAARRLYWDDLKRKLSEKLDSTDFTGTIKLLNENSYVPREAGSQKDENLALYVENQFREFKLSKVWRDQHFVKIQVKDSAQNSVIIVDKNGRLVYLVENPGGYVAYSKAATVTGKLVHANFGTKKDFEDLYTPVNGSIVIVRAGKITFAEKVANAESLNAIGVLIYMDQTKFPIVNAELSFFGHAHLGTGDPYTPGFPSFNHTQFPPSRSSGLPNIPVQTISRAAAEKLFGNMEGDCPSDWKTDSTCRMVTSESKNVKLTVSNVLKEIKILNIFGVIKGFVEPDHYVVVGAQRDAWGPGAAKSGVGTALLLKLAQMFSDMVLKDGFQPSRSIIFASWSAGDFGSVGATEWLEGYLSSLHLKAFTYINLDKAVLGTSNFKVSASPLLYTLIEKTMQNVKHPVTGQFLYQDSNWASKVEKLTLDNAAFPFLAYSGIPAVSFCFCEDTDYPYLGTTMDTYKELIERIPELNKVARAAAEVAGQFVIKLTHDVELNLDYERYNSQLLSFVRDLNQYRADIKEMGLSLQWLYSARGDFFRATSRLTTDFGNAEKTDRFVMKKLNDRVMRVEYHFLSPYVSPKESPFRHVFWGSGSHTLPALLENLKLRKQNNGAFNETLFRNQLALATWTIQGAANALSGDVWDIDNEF
Protocol: (§1) Briefly, 96-well polystyrene plates were coated with 5 μg/ml of streptavidin (Thermo Fisher, Cat #PI21125) in coating buffer (0.05M carbonate buffer, pH 9.6, Sigma, Cat #C3041) overnight at 4° C. Coated plates were then blocked with ELISA diluent (PBS+0.5% BSA+0.05% Tween20) for one hour. Blocking buffer was removed and human, cyno, or mouse Avi-His-tagged CD98hc and Avi-His-tagged human TfR polypeptides were added at 1 μg/ml in ELISA diluent and captured for 1 hour at room temperature. After washing three times with 300 μl of PBST (PBS+0.05% Tween20, Thermo 28352), the hybridoma cell culture supernatants or 1 μg/ml of commercially available purified mouse anti-human CD98hc monoclonal antibody (Sigma Aldrich, Cat #SAB 4700503) and rat anti-mouse CD98hc antibody (Bio-Rad Laboratories, Hercules, CA, Cat #MCA2684) were added (50 μl/well) to each well. After 30 minutes of incubation at room temperature, the plates were washed three times with 300 μl of PBST. […] After a final set of washes (3×300 μl in PBST), 50 μl/well of BioFx TMB substrate (Surmodics, Eden Praire, MN, Cat #TMBW-1000-01) was added to the wells. The reaction was then quenched after 5-10 mins with 50 μl/well of 2N sulfuric acid. The plates were read for absorbance at 450 nm on a SpectraMax M5 (Molecular Devices, Sunnyvale, CA) using SoftMax Pro software.

muCD98hc ECD Avi-His = biological target: T2, muCD98hc ECD Avi-His; assay: ELISA, hybridoma supernatant
Protocol: as §1

MFI ratio over secondary antibody [1]	binding result [2]	OD450 [3]	OD450 (muCD98hc ECD Avi-His)	Binder
1.2	no binding	0.0949	0.103	CD98HC.04.047 (antibody, V domains shown, hybridoma IgG) VH: EVQLQESGPSLVKPSQTLSLTCSVTGDSITSGYWNWIRKFPGNKLEYMGYISYSGSTYYNPSLKGRVSITRDTSKNQYYLQLNSVTTEDTATYYCQRHVIYDYTWFAYWGQGTLVTVSA VL: QIVLTQSPAIMSASPGEKVTISCSASSSVGYMYWLQQKPGSSPKPWIYRTSILASGVPARFSGSGSGTSYSLTISSMEAEDAATYYCQQYQSYPLTFGAGTKLELK
1.2	no binding	0.1	0.0984	CD98HC.04.065 (antibody, V domains shown, hybridoma IgG) VH: EVQLQESGPSLVKPSQTLSLTCSVTGDSITSGYWNWIRKFPGNKLEYMGYISYSGRTYYNPSLKSRVSITRDTSKNQYYLQLNSVTTEDTATYYCQRHVIYDYTWFAYWGQGTLVTVSA VL: QIVLTQSPAIMSASPGEKVTISCSASSSVHYMYWFQQKPGSSPKPWIYRTSILASGVPDRFSGSGSGTSYSLTISSMEAEDAATYYCQQYQSYPLTFGAGTKLELK
